Assay results: the DeepSol protein solubility set

Assay: soluble on expression in E. coli; label from the status in PepcDB or PDB records

Sequence	soluble on expression in E. coli
MHGLKRSLMIRTVCRGKATTAGADLPQSSQEIEVTTPKSENVPAKSANASTVYRPPYYRKPHQHHEPKHMLQEEFVNAGDASGAGVRVFDYYKTAEMVHSMPTIKEKIDFVSPYERPWTRAEKTWRRDWHPTLMATRKAWGIPPTPAHFDTLDYYKYLTKTRVENESLDDFYHGLRPPTADLQTSFQNTLKSMEFGDGINFSDEDTQKLFGSLIDDAMGGIAHNVSRLADHRVAYDVESEAFWVRSGFMFLYDEEEIGTRDVKRRLNNFPKFIGDDRRKLGELAFVHRDKLAAQVRSKEPSAPLHSFDSEDAKLPIFDTNYNFEETLFSPKVYNLWPDQEPLWQCPGYHADSGESHTYGILGVKSLRPLRKRIAHWMGWENENELESSEEAKQMLDDGARSQAIISMFTTLCAQAHTHGFTQYTDITRSFTSQLVLSDGINFWFAIGQLNTIAINVECDGFVNPRTNYIRIDGPYRLFDYCDKNGQYLSVQEEIDAENKVQRKIAPGLNEKVLERVTQMLMKQ	not soluble
MKRLRSKMTTEELAECLGVARQTVNRWIREQHWKTEKFPGVKGGRARLIHIDASVREFILNIPAFRKLPAFYQAEEAFAEYANAAHSHAYRQIIDAVENMSAQEQEKLALFLSREGIRGFLTRLGINEAD	not soluble
MRKMKKMDADTLTAILAFQRLSGTGKSLLEGAAKDAEAGRYSIIAINPVHEIKVYQHDYYIDGTHQVVADPLKEIELFIEKAREDELELPLDSGAIGYVGYDVIALYEDLGEIPVETRDIPDIRFYVYESFVIMDHQAEELILVQDNCYSGRSEADLDKALESMLTELTTPKKDEHKAVHVPKMSYKSNYTKDEYMGLVKKAKTYIQEGDFFQIVLSQRLEADFTVKPFDYYRKLRLLNPSPYLYFIDFGDTVLIGSSPESLIKTKGRTVITNPIAGTRRRGATKQEDELLASELLSDEKELAEHRMLVDLGRNDIGKIAETGSVHVPVYLTIERYRFLMHLVSVVEGTLKTGLTAIDALRSTLPAGTVSGAPKIRAMERIYEWENVKRGPYAGAVGYLTKNGDSDFALSIRTMVLHNGKAYVQAGAGIVYDSDPESEYLETLQKAKALLEVGE	not soluble
MANQKQVLDVQVSKGITTAQSNEHLRDRSEKAEKYAMSKGNYDPTRKRLNFEIAPGGKIHPIDTSRSIPKRMADILSHRGIKDPNEGLLEPKYRTVVNIIFGGSRQRMQELAFGTQQVDFEKGADNTRIERKRDIERWAKDVYSFVCGRYGEQNIAAFIVHLDELNPHIHCTLLPIKDSRFAYKEIFAGKDKFEYSARMKQLHTDFFAEVNTKWGMSRGTSISETGARHRTTEEYRRMLSEECTTIEDNIKLHQQVLGELQSDIRLAERRVKGLTTMVSNLEKQKTEKETLLSAAEYNLKENKGNAAELAIQIQMLEKELQGIIRQLADKQEKLQTADRQLIELKKDMGAIEERTEELKEEAYQYSRDVHSKVDSLFKDVLLESVISEYRNASAQMNVSERQLFDGSLVQSIAERGTEIMHCATMLFLGMVDDATTFAESHGGGGGGSDLKWGRDEDEDNRAWALRCMRMASRMMRSTIGKKSKRLEHHHHHH	not soluble
MGSDKIHHHHHHMIYSVDKKDIEIGISACLIGEKVRFDASNKPSHFCIKEFSEHVSYKSFCPEVAVGLPIPRPTIRQIKRDDVIHVSQKDGSGDVTEALKAYGKKVASMTKSLSGYIFCAKSPSCGMERVKIYSPEGNSLPSKGIGAFAKEIMDANPLLPCEENGRLNDPLLRENFVARVFAYKHWQTIVESGLTKHKLTTFHSHYKYTVMSHDLIAYKELGQLLARADLPLDEVAAQYILGLMTALKIIATRKKHANTLAHIQGYFSKHLQANERQELCEQIDAYREGLIPLMAPLTLIKHYLLNHPKDYLTKQAYLSPYPDKLRLRYAY	not soluble
MPKFEVPDGWTVQAFRFTLDPTEDQAKALARHFGARRKAYNWTVATLKADIQAWHASGTVTAKPSLRVLRKRWNTVKDDVCVNTETGVAWWPECSKEAYADGIAGAVEAYWNWQTSRAGKRAGKRVGFPRFKRKGRDQDRVSFTTGAMRVEPDRRHLTLPVIGTVRTHENTRRIERLIKAGRARVLAISVRRNGTRLDASVRVLVQRPQQPKVVHPGSRVGVDVGVRRLATVATADGTAIEQVENPRPLGAALRELRHVCRARSRCTKGSRRYRERTTQISRLHRRVNDVRTHHLHVLTTRLAQTHGRIVVEGLDATEMLRQKGLPGARARRRGLSDAALGTPRRHLSYKTVWYGSALVVADRWFPSSKTCHACRHVQDIGWDEQWQCDRCSVVHQRDDCAAINLARYEETSSIVGPVGAAVKRGADRKTGPRPAGGCEARKGSSPKAAEQPRDGVQVA	not soluble
MSLSNYISIKGAKVNNLKNIDVNIPRNKLVVITGLSGSGKSSLAFDTLYAEGQRRYVESLSSYARQFLGRMSKPECDFIKGIPPAIAIEQKVNSRNPRSTVGTSTEIYEYLRLLYARVGKTYSPISGQLVKKHSIEDIVNCMLSFPKGTKYTVLTPMMPREGRTLLQQLEMDLKQGFTRIEVNREIVRIEDFLQQTAAEDKKQNIYLLVDRMTADDSKDSISRLTDSAETAMYEGDGNCLLRFYSADGSTQLFSFSTKFETDGIKFEEPNDQMFSFNSPLGACPECEGFGKVIGIDEHLVIPNRALSVYDGAVLCWRGEKMGEWLQEFIHEAPAHDFPIFAPYYELTQEQKDYLWHGPRNKACIDSFFKMLEENQYKIQYRVMLARYRGKTICPVCHGTRLKKEAGYVKVGGKSISQLVDLPIHDLKEFFRTLELDAHDTAIAKRILTEITNRINFLMDVGLGYLTLNRLSNSLSGGESQRINLATSLGSSLVGSLYILDEPSIGLHSRDTDRLIKVLRQLQELGNTVVVVEHDEEIIRAADYIIDIGPQAGRLGGQIVYQGNMNDLQRNSNSYTVRYLLGEEGHHHHHH	not soluble
MSLGFVPVRGLHHFAYRCRDAEETRQFYEGILGLPLVHVVRAEEVPSTGEYCPYMHLFFEMKDGSCVAFFDLDDDTVPLPSSNTPVWAQHLALRVDSVAAVEEAKRKLEQAGVKVLGPVDHDGFVCSIYFFDPNGVRLELTTDTAEGHHHHHH	soluble
AKPIDVSRLDLRIGCIITARKHPDADSLYVEEVDVGEIAPRTVVSGLVNHVPLEQMQNRMVILLCNLKPAKMRGVLSQAMVMCASSPEKIEILAPPNGSVPGDRITFDAFPGEPDKELNPKKKIWEQIQPDLHTNDECVATYKGVPFEVKGKGVCRAQTMSNSGIKLEHHHHHH	soluble
SLQKQEKIIEMFNQIAPTYDKANRILSFGADVAWRKKACQRVMSLYLKKDLKIADIACGTGDMIEIWQESALKMEKNILNIKGIDPSSGMLNVAKEKFPNVEFIKAGAQNLPLESQSLDILSISYGIRNVVERQKALSEFARVLQKDGILVVLEFTKREKGGFIAACRDFYLKNILPSIGGIISKNKSAYEYLPNSIEGFLSKKEFILELKNAGFEMLDYKSFSFGVSSMFIAKKL	soluble
MQLFDLPLDQLQTYKPEKTAPKDFSEFWKLSLEELAKVQAEPDLQPVDYPADGVKVYRLTYKSFGNARITGWYAVPDKEGPHPAIVKYHGYNASYDGEIHEMVNWALHGYATFGMLVRGQQSSEDTSISPHGHALGWMTKGILDKDTYYYRGVYLDAVRALEVISSFDEVDETRIGVTGGSQGGGLTIAAAALSDIPKAAVADYPYLSNFERAIDVALEEPYLEINSFFRRNGSPETEVQAMKTLSYFDIMNLAYRVKVPVLMSIGLIDKVTPPSTVFAAYNHLETKKELKVYRYFGHEYIPAFQTEKLAFFKQHLKG	soluble
MAPTQAGHDTAYLKETVGEALARGCAAAISAQPNDPVEYLGLWLLKYVKNAEVEGNFYRERQQDLQKKKDRLVKEAQSEQAAKSVALTRKEAADALALVTAEPRELLEAAVKLVKQHTAAGAAYAAVVAEPEEPDWVAPEDDEAAAVETEDEAAGGAALAEGEEPPPEPEPEPEAAPEDGEGDAPAPKIPRPVDYSKKYFAYVAASAGQEHVLEADLYRPAPPPEDADEDFKPEPLPYSFRVLDEKLPMLYVPNVAAEERVKFFRKFPKIGSYQACGVALPASGEFKALLAADTLFPEGSGQPLSADDRDFVWEVSQSLSRALEAVQARAAEALAATSAAEAVEELKAKVAELREQAAAEAAAAAPPPPAEGEEGEGEAPPAEEEPPAEEEAEEEEEEAEEGAEEGAEEGEEGEEAPPKPKKKKKVFNPIPGLQAAIEKLTAAAEAATEADARAQAAVALEKQALDEVVALASSHSDATLSSLRNMLSVPQGTYHVVKALLHLLGRPAASFSTWKRAHSHFSPRLFEDMAAYDATAERDMAVWGRVRSCYKAAPAAKKLDAEMPNTLFGSVALMYIKQVRRVARKAVLQRELAAKLAKAQQDLADKQAALVEAERVKAEREAEEARLAAEAEAAAAAEAEAAARAAAEAEAAAAAEAAAEAAAEAAAAAAEAAAEAGEGEAVAEREAAPAEAEAAPAEGEAAPPAEGEGEAQPAQEGSNSSSSSSDSSSSEESKAAAE	not soluble
MAHHHHHHMFGTTRVWRNTFLTKSVATPPISVIRTGPRWWADPERMVRQKLMYFTLGVDQLPLRRTAVIQKDLHRFHMCKPPPRIGDTTGYKRSRAAQLTTWYRRIQYQEYHLQHLFTRHVWGLVRAYPGNTTKIQGKADDGYVGYDSVPYHRYNRTPLPFPAREIYGRRE	not soluble
MRIQIRYDDIDYLGHVNNARFLAYFEIGRLSYMKRFFNTRSAKDISMVIARAELDFERSVMFEDDIFVRTWISRVGNRSFDFSYTIEDDGGTVFCRGRTVNVFVEDGKPVSVPDFVKDLVISDVKT	not soluble
MLWHAMPPELNTARLMAGAGPAPMLAAAAGWQTLSAALDAQAVELTARLNSLGEAWTGGGSDKALAAATPMVVWLQTASTQAKTRAMQATAQAAAYTQAMATTPSLPEIAANHITQAVLTATNFFGINTIPIALTEMDYFIRMWNQAALAMEVYQAETAVNTLFEKLEPMASILDPGASQSTTNPIFGMPSPGSSTPVGQLPPAATQTLGQLGEMSGPMQQLTQPLQQVTSLFSQVGGTGGGNPADEEAAQMGLLGTSPLSNHPLAGGSGPSAGAGLLRAESLPGAGGSLTRTPLMSQLIEKPVAPSVMPAAAAGSSATGGAAPVGAGAMGQGAQSGGSTRPGLVAPAPLAQEREEDDEDDWDEEDDW	soluble
DSNLLLKLGMLTGRIVPDNQAVYAKDFKPESILGASNLSFRGNVNISEGQSADVVFLNADNGILVQDLPFEVKLKKFHIDFYNTGMPRDFASDIEVTDKATGEKLERTIRVNHPLTLHGITIYQASFADGGSDLTFKAWNLGDASREPVVLKATSIHQFPLEIGKHKYRLEFDQFTSMNVEDMSEGAEREKSLKSTLNDVRAVTQEGKKYTNIGPSIVYRIRDAAGQAVEYKNYMLPVLQEQDYFWITGTRSGLQQQYRWLRIPLDKQLKADTFMALREFLKDGEGRKRLVADATKGAPAEIREQFMLAAENTLNIFAQKGYLGLDEFITSNIPKEQQDKMQGYFYEMLYGVMNAALDETIRRYGLPEWQQDEARNRFLLHSMDAYTGLTEYPAPMLLQLDGFSEVRSSGLQMTRSP	not soluble
MTEIERKFLVATFPDGELHAVPLRQGYLTTPTDSIELRLRQQGTEYFMTLKSEGGLSRQEYEIQIDVTQFEMLWPATEGRRVEKTRYSGKLPDGQLFELDVFAGHLSPLMLVEVEFLSEDAAQAFIPPPWFGEEVTEDKRYKNKALALSIP	soluble
AHHHHHHGSKAFISIDLEGLPYIVSREHLFVKGALYNEARKIATKIAKIAAEKLHEEGFEEIVIADSHGPMVNIIPEEMPSYVSIVRGFPRPLSMVAFGKGSDIAIFLGYHAKAGTSFATFDHTYSGATIDKIIISGIEVSEFLLNSMVLGEWGVPIGLVAGDEALKEDLKYVPWAEFIPLKKASGRYSALSPSMEAIEKELKAGIKRAVEKLNNKELRAFKIETPVDVEIRFLNSAYAEVADLLPGVERIDGKTIRFTANTVEDAYKIMEVLTLAAAGVSYIVSR	not soluble
